Assay results published in US20220204592A1.
Residue numbers refer to the chain shown, from its start. Where two headings read alike, the source gives them in different places.

B1: Ab 037 (antibody, V domains shown)
VH: EVQLLESGGGLVKPGQSLKLSCAASGFTFTSYAMHWVRQPPGKGLEWVAVVSYDGNYKYYADSVQGRFTISRDNSKNTLYLQMNSLRAEDTAVYYCAKDSRLRSLLYFEWLSQGYFNPWGQGTTLTVSS
VL: DIQMTQSPSSLSASVGDRVTITCRSSQSITFNYKNYLGWYQQKPGKAPKLLIYWGSYLESGVPSRFSGSGSGTDFTLTISSLQPEDFATYYCQQHYRTPPSFGQGTKVEIK
B2: Ab 044 (antibody, V domains shown)
VH: B1 VH with E1Q, S7T
VL: B1 VL with N32D, G38A
B3: Ab 005 (antibody, V domains shown)
VH: B1 VH with E1Q, S7T
VL: DIVMTQSPDTVAVTVGERATINCKSSQTVTFNYKNYLAWYQQKPGQPPKLLIYWASTRESGVPDRFSGSGSGTDFTLTISSLQAEDVAVYYCQQHYRTPPSFGQGTKLDIK
B4: Ab 031 (antibody, V domains shown)
VH: B1 VH
VL: B1 VL with G38A
B5: Ab 004 (antibody, V domains shown)
VH: B1 VH with E1Q, S7T
VL: B3 VL with V11L, V15L, N22Q, S80T
B6: Ab 032 (antibody, V domains shown)
VH: B1 VH with E1Q, S7T
VL: B1 VL with G38A
B7: Ab 038 (antibody, V domains shown)
VH: B1 VH with E1Q, S7T
VL: B1 VL

How the values were obtained:
[1] = target: H3 hemagglutinin of H3N2 strain X-31 (influenza A virus X-31 (H3N2)) (UniProt P03437); assay: cell-based or functional assay
[2] = target: H1 hemagglutinin (A/Puerto Rico/8/34) (influenza A virus A/Puerto Rico/8/34 (H1N1)) (UniProt P03452); assay: cell-based or functional assay
[3] = target: H1 hemagglutinin (A/Solomon Islands/3/2006) (influenza A virus A/Solomon Islands/3/2006); assay: ELISA on coated HA, relative Kd (4-parameter fit)
[4] = target: H7 hemagglutinin (A/Netherlands/219/2003) (influenza A virus A/Netherlands/219/2003 (H7N7)); assay: ELISA on coated HA, relative Kd (4-parameter fit)
[5] = target: H3 hemagglutinin (A/New York/55/2004) (influenza A virus A/New York/55/2004 (H3N2)); assay: ELISA on coated HA, relative Kd (4-parameter fit)
[6] = target: H5 hemagglutinin (A/Vietnam/1203/2004) (influenza A virus A/Vietnam/1203/2004 (H5N1)); assay: ELISA on coated HA, relative Kd (4-parameter fit)
[7] = target: H3 hemagglutinin (A/Brisbane/10/2007) (influenza A virus A/Brisbane/10/2007 (H3N2)); assay: ELISA on coated HA, relative Kd (4-parameter fit)
[8] = target: H3 hemagglutinin (A/Wisconsin/67/2005) (influenza A virus A/Wisconsin/67/2005 (H3N2)); assay: ELISA on coated HA, relative Kd (4-parameter fit)
[9] = target: H3 hemagglutinin (A/Wyoming/03/2003) (influenza A virus A/Wyoming/03/2003 (H3N2)); assay: ELISA on coated HA, relative Kd (4-parameter fit)
[10] = target: H9 hemagglutinin (A/Hong Kong/1073/99) (influenza A virus A/Hong Kong/1073/99 (H9)); assay: ELISA on coated HA, relative Kd (4-parameter fit)
[11] = target: H16 hemagglutinin (A/black headed gull/Mongolia/1756/2006) (influenza A virus A/black headed gull/Mongolia/1756/2006 (H16)); assay: ELISA on coated HA
[12] = target: H7 hemagglutinin (A/Netherlands/219/2003) (influenza A virus A/Netherlands/219/2003 (H7N7)); assay: ELISA on coated HA
[13] = target: H3 hemagglutinin (A/New York/55/2004) (influenza A virus A/New York/55/2004 (H3N2)); assay: ELISA on coated HA
[14] = target: H3 hemagglutinin (A/Moscow/10/1999) (influenza A virus A/Moscow/10/1999 (H3)); assay: ELISA on coated HA
[15] = target: H2 hemagglutinin (A/chicken/PA/2004) (influenza A virus A/chicken/PA/2004 (H2)); assay: ELISA on coated HA
[16] = target: H5 hemagglutinin (A/Vietnam/1203/2004) (influenza A virus A/Vietnam/1203/2004 (H5N1)); assay: ELISA on coated HA
[17] = target: H3 hemagglutinin (A/Brisbane/10/2007) (influenza A virus A/Brisbane/10/2007 (H3N2)); assay: ELISA on coated HA
[18] = target: HA from influenza B (B/Wisconsin/1/2010) (influenza B virus B/Wisconsin/1/2010); assay: ELISA on coated HA
[19] = target: H3 hemagglutinin (A/Wisconsin/67/2005) (influenza A virus A/Wisconsin/67/2005 (H3N2)); assay: ELISA on coated HA
[20] = target: H3 hemagglutinin (A/Wyoming/03/2003) (influenza A virus A/Wyoming/03/2003 (H3N2)); assay: ELISA on coated HA
[21] = target: H9 hemagglutinin (A/Hong Kong/1073/99) (influenza A virus A/Hong Kong/1073/99 (H9)); assay: ELISA on coated HA
[22] = target: H9 hemagglutinin (A/Guinea fowl/HK/WF10/99) (influenza A virus A/Guinea fowl/HK/WF10/99 (H9)); assay: ELISA on coated HA
[23] = target: H3 hemagglutinin (A/Perth/16/2006) (influenza A virus A/Perth/16/2006 (H3)); assay: ELISA on coated HA
[24] = target: H3 hemagglutinin (A/Uruguay/716/2007) (influenza A virus A/Uruguay/716/2007 (H3)); assay: ELISA on coated HA
[25] = target: H3 hemagglutinin (A/Brisbane/10/2007) (influenza A virus A/Brisbane/10/2007 (H3N2)); assay: cell-based or functional assay
[26] = target: H3 hemagglutinin (A/Wyoming/03/2003) (influenza A virus A/Wyoming/03/2003 (H3N2)); assay: cell-based or functional assay
[27] = target: H7 hemagglutinin (A/Netherlands/219/2003) (influenza A virus A/Netherlands/219/2003 (H7N7))
[28] = target: H5 hemagglutinin (A/Vietnam/1203/2004) (influenza A virus A/Vietnam/1203/2004 (H5N1))
[29] = target: H3 hemagglutinin (A/Brisbane/10/2007) (influenza A virus A/Brisbane/10/2007 (H3N2))
[30] = target: H5 hemagglutinin (A/Vietnam/1203/2004) (influenza A virus A/Vietnam/1203/2004 (H5N1)); remark: listed apart in the source

Binder	MIC [1] [µg/mL]	MIC [2] [µg/mL]	Kd [3] [nM]	Kd [4] [nM]	Kd [5] [nM]	Kd [6] [nM]	Kd [7] [nM]	Kd [8] [nM]	Kd [9] [nM]	Kd [10] [nM]	other results
B1	8	4	0.075	0.114	0.14	0.059	0.087	0.313	0.512	0.075	–
B2	–	–	–	–	–	–	–	–	–	–	Kd [11]: < 0.5 nM; Kd [12]: < 0.5 nM; Kd [13]: < 0.5 nM; Kd [14]: < 0.5 nM; Kd [15]: < 0.5 nM; Kd [16]: < 0.5 nM; Kd [17]: < 0.5 nM; Kd [18]: < 0.5 nM; Kd [19]: < 0.5 nM; Kd [20]: < 0.5 nM; Kd [21]: < 0.5 nM; Kd [22]: < 0.5 nM; Kd [23]: < 0.5 nM; Kd [24]: < 0.5 nM; EC50, Neutral Red (CPE inhibition) [25]: 0.3 µg/mL; EC50, Neutral Red (CPE inhibition) [26]: 6.8 µg/mL
B3	10	10	< 0.08	0.064	0.065	0.038	0.052	1.09	0.311	0.035	–
B4	20	1	< 0.025	0.091	0.059	< 0.025	0.068	0.253	0.331	< 0.025	–
B5	6	12	< 0.08	0.073	0.066	0.06	< 0.08	0.713	0.272	0.06	–
B6	–	–	–	0.106	0.094	< 0.025	< 0.025	0.208	0.262	0.079	Kd [27]: 0.145 nM; koff [27]: 0.000161 s⁻¹; kon [27]: 1.13e+06 M⁻¹ s⁻¹; kon [28]: 988000 M⁻¹ s⁻¹; Kd [29]: 0.234 nM; koff [29]: 0.000376 s⁻¹; kon [29]: 1.61e+06 M⁻¹ s⁻¹; koff [30]: < 5e-06 s⁻¹
B7	4	2	0.064	0.119	0.102	0.087	< 0.025	0.199	0.515	< 0.025	–
